Values of other authors in PMC2964873.

Biological target: plectin-1 95-117 (Homo sapiens) (UniProt Q15149)
Chain of UniProt Q15149 (Q15149 95-117): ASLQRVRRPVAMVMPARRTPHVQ

- Kd: 29 nM
Substance: Siah (from UniProt Q8IUQ4)
